This note sets out measurements from the RNAGym collection of RNA variant scans (doi:10.1073/pnas.2313332121).

Fewer inactive variants are shown than the library holds.

The labels stand for the following.
B1: TPR 5TU (parent)
chain: GGAUCUUCUCGAUCUAACAAAAAAGACAAAUCUGCCACAAAGCUUGAGAGCAUCUUCGGAUGCAGAGGCGGCAGCCUUCGGUGGCGCGAUAGCGCCAACGUUCUCAACUAUGACACGCAAAACGCGUGCUCCGUUGAAUGGAGUUUAUCAUG

Variants of B1 are the subject of this data set. Put plainly: polymerase ribozyme fitness, log enrichment relative to wild type (log ratio); higher = more active; in vitro selection for triplet polymerase activity. In a few lines:
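A single round of triplicate in vitro selection, including frozen incubation at −7 °C, was applied to PCR-built, transcribed mutant libraries of each subunit of a heterodimeric triplet polymerase ribozyme. Illumina sequencing of input and output libraries retained genotypes with ≥10 input reads and ≥1 read per output. Fitness is the base-2 logarithm of genotype enrichment divided by wild-type enrichment, from inverse-variance-weighted replicate averages.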
With A91G C105U C131A, the “polymerase ribozyme fitness (log ratio)” value was -3.83.
Next, C54U U151C: -3.65.
In the case of C14A A20U A21U U102G it was no more than -4.2; in that of U7A U61A G62A G71C C103G, no more than -4.2; in that of C93A U148C, -3.62.
In the case of G88U C95G C125U it was no more than -4.2; in that of C14U A41U U56A C93A C123A, no more than -4.2.
Take C5U U33A C38U C57G C93U A98U: the “polymerase ribozyme fitness (log ratio)” value is no more than -4.2.
In the case of U15C U53A A73G C76U G92C it was -1.85; in that of G58A A73U C96U, -0.178; in that of A30U C54A U55G G86C C105A A119G G136U A142U, no more than -4.2.
In the case of G84C it was -1.76; in that of A16U A17U U44A C54U A66G A89G G140C, no more than -4.2.
Regarding U9A C76A C85U G100C U104G A115U, the “polymerase ribozyme fitness (log ratio)” value was no more than -4.2.
In the case of C57U C75U C123G U144C it was -0.394; in that of A12G U55A C76A C93A A120G, -3.73; in that of C93U C114U, -2.54.
In the case of U144A U145A it was -0.541.
Next, G59C G65C C76G U145G C149A: no more than -4.2.
On to C96U G124A A147U, for which the “polymerase ribozyme fitness (log ratio)” value was 0.911.
Next, G42A A47C U77G G92U: no more than -4.2; G86C U151G: no more than -4.2.
In the case of G25U A52G U56A A60G G133C it was -4.06; in that of G58C A150U, 1.46.
In the case of A52U C87A A97U U127C A142C it was no more than -4.2.
For the variant G152U, the “polymerase ribozyme fitness (log ratio)” value is -2.19.
On to C18G A41U A47C A49G G86A U104G, for which the “polymerase ribozyme fitness (log ratio)” value was -3.44.
In the case of U6G A41G G48U C54U A122U it was -0.949.
As to G11A G48A A52C G83A C87U A119C G124C, the “polymerase ribozyme fitness (log ratio)” value was no more than -4.2.
In the case of A73C U77C C93U it was no more than -4.2; in that of A30U C36A C85U G92A C96A, no more than -4.2; in that of C125U G143U, -3.2.
In the case of A37U A113U C116U G136C it was no more than -4.2; in that of A19C C125U, 0.16.
For the variant A40G G80C U90G, the “polymerase ribozyme fitness (log ratio)” value is no more than -4.2.
Next, U56A C57A C85G: -0.79; G67U G81A C93G C105U: no more than -4.2; U13G G59U C96U: -0.998.
In the case of A37G G81C A142C it was -3.82; in that of C14U C57A, -0.738; in that of A30G A41U C69G C76U G94U U102G U130C, no more than -4.2.
Next, C36U A52U: -1.56; A26C A91G G136C: no more than -4.2.
Consider A21U C57A A89U, for which the “polymerase ribozyme fitness (log ratio)” value was -0.571.
In the case of A19U A23U U90G C105A it was no more than -4.2; in that of G48A C96U, -0.356; in that of G81A G133C, -3.84.
As to C14U C32G C69A, the “polymerase ribozyme fitness (log ratio)” value is no more than -4.2.
In the case of A3U C57U C87U A113C A119G it was -3.73; in that of A21G A49G C63G C96U A98U C125G, -0.663; in that of A21C A23G C85G G141C, -3.89.
In the case of C10U U15G A23U C43U U82C G92U U104C it was no more than -4.2; in that of A3U G59A C99U U144C A150G, no more than -4.2.
In the case of A41C U144C A147U it was -0.619; in that of A47C C87U C105A A119C, -1.51.
With G59A C103A A107U A110U U111A C118A A138G, the “polymerase ribozyme fitness (log ratio)” value was no more than -4.2.
Turning to C5A C57U G59C C96G U101G, the “polymerase ribozyme fitness (log ratio)” value is -0.41.
In the case of U6G G50U C85U C116U G152U it was -3.7; in that of A16C G81A, -0.894; in that of U6G C14G A16C A20U A21U G42A U61A A64G G71A C85U C87U C129U G136A, no more than -4.2.
Next, A19U G94C U145G: -0.324.
Next, C5G A39U C57A G59U G83U C103G C116U: no more than -4.2; A20C A41C U55C C93G C99U U102G: no more than -4.2; A12C A16G A39U A91C G141C U148G: no more than -4.2.
Consider C54A U56G U78G U82G C114A U144C, for which the “polymerase ribozyme fitness (log ratio)” value is no more than -4.2.
Next, A40C U61A A91G A97U G141U: no more than -4.2.
Regarding G70A A73G C79U G88C G133C A137C, the “polymerase ribozyme fitness (log ratio)” value is no more than -4.2.
Turning to G128U, the “polymerase ribozyme fitness (log ratio)” value was -2.53.
In the case of U6G U45A C57U G67C C95G C99U it was no more than -4.2; in that of U4A A121G A137C C149U, -4.16.
Next, U53G C63U G80C G81C G84U G100U: no more than -4.2; A22U U55A G94A A98U U135A: -2.29.
In the case of G48C C85A C118A it was -1.39.
U7A: the “polymerase ribozyme fitness (log ratio)” value is -2.18.
For the variant A12U C79U C93G C132G, the “polymerase ribozyme fitness (log ratio)” value is no more than -4.2.
In the case of A47C C51U C54U C72U G84U it was -3.18; in that of A52C A66C A91C A115G, no more than -4.2.
For the variant G65U U78A, the “polymerase ribozyme fitness (log ratio)” value was -1.52.
Next, C27U U44A G46A C54A C116G A147U: no more than -4.2.
Next, U45G C114U A119U: -2.4; A21G C32G G34C U56A G59C U82G G88U C103G G140U: no more than -4.2.
Next, A60U C87U: -1.36.
As for A20C A21G G48A C54A A113C A147C, the “polymerase ribozyme fitness (log ratio)” value is no more than -4.2.
Next, G84A U127C: -1.91.
